From publication PMC10879016

B1: multimerin-1 (MMRN1): T216A (protein)
parent chain: MKGARLFVLLSSLWSGGIGLNNSKHSWTIPEDGNSQKTMPSASVPPNKIQSLQILPTTRVMSAEIATTPEARTSEDSLLKSTLPPSETSAPAEGVRNQTLTSTEKAEGVVKLQNLTLPTNASIKFNPGAESVVLSNSTLKFLQSFARKSNEQATSLNTVGGTGGIGGVGGTGGVGNRAPRETYLSRGDSSSSQRTDYQKSNFETTRGKNWCAYVHTRLSPTVILDNQVTYVPGGKGPCGWTGGSCPQRSQKISNPVYRMQHKIVTSLDWRCCPGYSGPKCQLRAQEQQSLIHTNQAESHTAVGRGVAEQQQQQGCGDPEVMQKMTDQVNYQAMKLTLLQKKIDNISLTVNDVRNTYSSLEGKVSEDKSREFQSLLKGLKSKSINVLIRDIVREQFKIFQNDMQETVAQLFKTVSSLSEDLESTRQIIQKVNESVVSIAAQQKFVLVQENRPTLTDIVELRNHIVNVRQEMTLTCEKPIKELEVKQTHLEGALEQEHSRSILYYESLNKTLSKLKEVHEQLLSTEQVSDQKNAPAAESVSNNVTEYMSTLHENIKKQSLMMLQMFEDLHIQESKINNLTVSLEMEKESLRGECEDMLSKCRNDFKFQLKDTEENLHVLNQTLAEVLFPMDNKMDKMSEQLNDLTYDMEILQPLLEQGASLRQTMTYEQPKEAIVIRKKIENLTSAVNSLNFIIKELTKRHNLLRNEVQGRDDALERRINEYALEMEDGLNKTMTIINNAIDFIQDNYALKETLSTIKDNSEIHHKCTSDMETILTFIPQFHRLNDSIQTLVNDNQRYNFVLQVAKTLAGIPRDEKLNQSNFQKMYQMFNETTSQVRKYQQNMSHLEEKLLLTTKISKNFETRLQDIESKVTQTLIPYYISVKKGSVVTNERDQALQLQVLNSRFKALEAKSIHLSINFFSLNKTLHEVLTMCHNASTSVSELNATIPKWIKHSLPDIQLLQKGLTEFVEPIIQIKTQAALSNLTCCIDRSLPGSLANVVKSQKQVKSLPKKINALKKPTVNLTTVLIGRTQRNTDNIIYPEEYSSCSRHPCQNGGTCINGRTSFTCACRHPFTGDNCTIKLVEENALAPDFSKGSYRYAPMVAFFASHTYGMTIPGPILFNNLDVNYGASYTPRTGKFRIPYLGVYVFKYTIESFSAHISGFLVVDGIDKLAFESENINSEIHCDRVLTGDALLELNYGQEVWLRLAKGTIPAKFPPVTTFSGYLLYRT
B2: multimerin-1 (MMRN1): POFUT2 KO (protein)
parent chain: B1 parent chain
B3: multimerin-1 (MMRN1): T1055A (protein)
parent chain: B1 parent chain
B4: multimerin-1 (MMRN1): POFUT1 KO (protein)
parent chain: B1 parent chain

Legend:
[1] = anti-Myc Western of HEK293T medium, IgG-normalised; details: glycan lost; control: MMRN1 WT-Myc
[2] = anti-Myc Western of medium, IgG-normalised; details: glycan lost; control: WT HEK293T cells

Protein | expression_or_secretion [1] | expression_or_secretion [2]
B1 | decreases | 
B2 |  | no change
B3 | decreases | 
B4 |  | abolishes
